Patent US20020086018A1
pKd: −log10 of the molar value.

Tests used:
[1] = target: huBCMA-Fc (soluble human BCMA-Fc receptor fusion protein) (human); test: BIAcore 2000; BCMA-Fc immobilised on CM5, Flag-APRIL as analyte, 1:1 Langmuir model
[2] = target: mBCMA-Fc (soluble murine BCMA-Fc) (mouse); test: as above

Soluble murine APRIL-Flag protein (FLAG-tagged soluble mouse G70) (ligand)
pKd [1]: 9.54
pKd [2]: 9.60
